The target of assay [1] is DCAF15-3xFLAG (human) (UniProt Q66K64). Description: pull-down of 100 nM RBM39Δ150 by DCAF15-3xFLAG on anti-FLAG beads with rising indisulam, western blot (FIG. 4C). In general terms: In western blotting, separated proteins are transferred to a membrane and probed.
Assay [2] concerns the target RBM39-3xFLAG (human) (UniProt Q14498). Description: anti-FLAG IP of RBM39-3xFLAG from H1155 cells treated with DMSO (no indisulam), LC-MS/MS.
Assay [3] has the same target. Description: anti-FLAG IP of RBM39-3xFLAG from H1155 cells treated with 10 µM indisulam, LC-MS/MS.

Chain of RBM39-3xFLAG (human) (Q14498 whole entry): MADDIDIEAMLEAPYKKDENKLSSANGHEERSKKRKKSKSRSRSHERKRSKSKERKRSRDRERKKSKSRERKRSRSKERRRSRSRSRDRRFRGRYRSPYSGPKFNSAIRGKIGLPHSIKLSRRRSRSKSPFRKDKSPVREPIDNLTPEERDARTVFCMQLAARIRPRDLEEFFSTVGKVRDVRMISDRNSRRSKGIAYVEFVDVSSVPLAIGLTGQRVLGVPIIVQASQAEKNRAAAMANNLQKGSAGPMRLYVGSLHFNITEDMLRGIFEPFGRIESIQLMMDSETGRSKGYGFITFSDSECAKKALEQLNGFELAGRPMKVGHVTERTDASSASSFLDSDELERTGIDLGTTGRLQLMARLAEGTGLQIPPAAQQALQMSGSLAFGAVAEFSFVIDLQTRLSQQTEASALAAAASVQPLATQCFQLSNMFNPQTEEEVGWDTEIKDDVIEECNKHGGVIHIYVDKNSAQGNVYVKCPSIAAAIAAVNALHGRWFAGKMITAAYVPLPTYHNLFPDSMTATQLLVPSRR
Chain of DCAF15-3xFLAG (human) (Q66K64 whole entry): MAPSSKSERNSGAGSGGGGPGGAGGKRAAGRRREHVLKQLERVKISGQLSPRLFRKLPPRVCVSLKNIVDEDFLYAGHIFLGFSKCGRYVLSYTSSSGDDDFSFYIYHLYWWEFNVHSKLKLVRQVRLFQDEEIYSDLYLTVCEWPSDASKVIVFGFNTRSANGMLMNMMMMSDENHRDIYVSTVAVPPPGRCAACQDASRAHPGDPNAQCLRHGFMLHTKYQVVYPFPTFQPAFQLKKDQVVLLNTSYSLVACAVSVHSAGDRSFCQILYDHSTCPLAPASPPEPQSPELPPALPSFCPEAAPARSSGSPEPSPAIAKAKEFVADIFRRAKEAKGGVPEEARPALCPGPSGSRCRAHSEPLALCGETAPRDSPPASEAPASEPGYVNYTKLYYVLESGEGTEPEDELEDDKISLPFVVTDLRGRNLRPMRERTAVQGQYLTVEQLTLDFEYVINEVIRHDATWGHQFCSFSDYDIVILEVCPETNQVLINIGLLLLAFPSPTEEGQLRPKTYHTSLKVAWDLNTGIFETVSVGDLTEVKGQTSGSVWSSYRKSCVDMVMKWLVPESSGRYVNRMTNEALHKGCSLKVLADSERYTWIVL

Take RBM39Δ150 (from UniProt Q14498 151-530): the indisulam concentration at which the complex was apparent in assay [1] came to 0.1 µM.

In assay [2], TPI1 (from UniProt P60174 2-249) displayed a DMSO total (peptide count) of 0 peptides and a DMSO unique (peptide count) of 0 peptides. In assay [3], this substance had an indisulam total (peptide count) of 4 peptides and an indisulam unique (peptide count) of 4 peptides.

Regarding PSMC5 (from UniProt P62195 2-406), in assay [2], the DMSO total (peptide count) worked out at 0 peptides and the DMSO unique (peptide count) amounted to 0 peptides. In assay [3], the indisulam total (peptide count) amounted to 6 peptides and the indisulam unique (peptide count) stood at 6 peptides.

Turning to PPM1B (from UniProt O75688 2-479), in assay [2], the DMSO total (peptide count) is 0 peptides and the DMSO unique (peptide count) was 0 peptides. In assay [3], this substance showed an indisulam total (peptide count) of 5 peptides and an indisulam unique (peptide count) of 5 peptides.

Take “DKFZp686J1372 (from UniProt Q5HYB6 1-232)”: in assay [2], the DMSO total (peptide count) was determined as 0 peptides and the DMSO unique (peptide count) came to 0 peptides. Further, in assay [3], the indisulam total (peptide count) came out at 4 peptides and the indisulam unique (peptide count) is 4 peptides.

In the case of PSMD11 (from UniProt O00231 2-422), in assay [2], the DMSO total (peptide count) came to 0 peptides and the DMSO unique (peptide count) came to 0 peptides. In assay [3], this substance returned an indisulam total (peptide count) of 5 peptides and an indisulam unique (peptide count) of 5 peptides.

In the case of FUS (from UniProt P35637 1-526), in assay [2], the DMSO total (peptide count) was 0 peptides and the DMSO unique (peptide count) is 0 peptides. In assay [3], this substance returned an indisulam total (peptide count) of 6 peptides and an indisulam unique (peptide count) of 6 peptides.

In assay [2], DDA1 (from UniProt Q9BW61 2-102) registered a DMSO total (peptide count) of 0 peptides and a DMSO unique (peptide count) of 0 peptides. In assay [3], the indisulam total (peptide count) came to 4 peptides and the indisulam unique (peptide count) worked out at 4 peptides.

In assay [2], TPM3 (from UniProt P06753 2-285) returned a DMSO total (peptide count) of 0 peptides and a DMSO unique (peptide count) of 0 peptides. Further, in assay [3], the indisulam total (peptide count) was determined as 4 peptides and the indisulam unique (peptide count) worked out at 4 peptides.

In assay [2], ANXA2 (from UniProt P07355 2-339) had a DMSO total (peptide count) of 1 peptides and a DMSO unique (peptide count) of 1 peptides. Also, in assay [3], the indisulam total (peptide count) worked out at 11 peptides and the indisulam unique (peptide count) came out at 10 peptides.

In assay [2], CUL4B (from UniProt Q13620 1-913) showed a DMSO total (peptide count) of 0 peptides and a DMSO unique (peptide count) of 0 peptides. Further, in assay [3], the indisulam total (peptide count) is 16 peptides and the indisulam unique (peptide count) worked out at 15 peptides.

In assay [2], DDX46 (from UniProt Q7L014 2-1031) had a DMSO total (peptide count) of 0 peptides and a DMSO unique (peptide count) of 0 peptides. Also, in assay [3], the indisulam total (peptide count) was determined as 6 peptides and the indisulam unique (peptide count) is 6 peptides.

In assay [2], CUL4A (from UniProt Q13619 1-759) yielded a DMSO total (peptide count) of 1 peptides and a DMSO unique (peptide count) of 1 peptides. Moreover, in assay [3], the indisulam total (peptide count) was 11 peptides and the indisulam unique (peptide count) was 11 peptides.

As to YWHAB (from UniProt P31946 1-246), in assay [2], the DMSO total (peptide count) is 0 peptides and the DMSO unique (peptide count) came to 0 peptides. Moreover, in assay [3], the indisulam total (peptide count) was determined as 5 peptides and the indisulam unique (peptide count) turned out to be 4 peptides.

Turning to DDB1 (from UniProt Q16531 2-1140), in assay [2], the DMSO total (peptide count) came out at 5 peptides and the DMSO unique (peptide count) was 4 peptides. Also, in assay [3], the indisulam total (peptide count) was found to be 52 peptides and the indisulam unique (peptide count) is 46 peptides.

In assay [2], PDIA3 (from UniProt P30101 25-505) yielded a DMSO total (peptide count) of 0 peptides and a DMSO unique (peptide count) of 0 peptides. In assay [3], the indisulam total (peptide count) was 4 peptides and the indisulam unique (peptide count) was found to be 4 peptides.

In assay [2], HDX (from UniProt Q7Z353 1-690) came in with a DMSO total (peptide count) of 0 peptides and a DMSO unique (peptide count) of 0 peptides. In assay [3], this substance yielded an indisulam total (peptide count) of 15 peptides and an indisulam unique (peptide count) of 14 peptides.

Values taken from patent US20180140578A1, “METHODS AND COMPOSITIONS FOR THE DIAGNOSIS AND SELECTIVE TREATMENT OF CANCER” (Board of Regents of the University of Texas System, priority 2016, published 2018).
